Test results taken from patent US7358353B2, “Nucleic acid and corresponding protein named 158P1D7 useful in the treatment and detection of bladder and other cancers” (Agensys, Inc., priority 2000, dated 2008).

Target: T1, 158P1D7 protein (Homo sapiens, UniProt Q9H5Y7)
T1 construct: from tissue; host or cells: formalin fixed, paraffin embedded tumor tissue from patients (bladder transitional cell carcinoma, breast ductal carcinoma, lung carcinoma)
Test: Immunohistochemistry of cancer patient specimens with anti-158P1D7 MAb (Table LVIII)
Excerpt: FIG. 36. Detection of 158P1D7 protein by immunohistochemistry in various cancer patient specimens. Tissue was obtained from patients with bladder transitional cell carcinoma, breast ductal carcinoma and lung carcinoma. […] (C) breast infiltrating ductal carcinoma, moderately differentiated, (D) breast infiltrating ductal carcinoma, moderate to poorly differentiated, (E) lung squamous cell carcinoma, (F) lung adenocarcinoma, well differentiated.
The sections were dewaxed, rehydrated and treated with antigen retrieval solution (Antigen Retrieval Citra Solution; BioGenex, 4600 Norris Canyon Road, San Ramon, Calif., 94583) at high temperature. Sections were then incubated in mouse monoclonal anti-158P1D7 antibody, M15-68(2)22, for 3 hours. The slides were washed three times in buffer and further incubated with DAKO EnVision+™ peroxidase-conjugated goat anti-mouse immunoglobulin secondary antibody (DAKO Corporation, Carpenteria, Calif.) for 1 hour. The sections were then washed in buffer, developed using the DAB kit (SIGMA Chemicals), counterstained using hematoxylin, and analyzed by bright field microscopy. […] 49.3% of bladder transitional cell carcinoma samples tested were positive for 158P1D7 (Table LVIII).

[1] = Breast Carcinoma patient specimens
[2] = Lung Carcinoma patient specimens

## 158P1D7 protein
Bladder TCC patient specimens
  % No. Positive: 49.3%
  Number Positive: 35
[1]
  % No. Positive: 90.9%
  Number Positive: 11
[2]
  % No. Positive: 23.1%
  Number Positive: 26
